Patent CN103211774A, “一种注射用甲磺酸加贝酯组合物及其制备方法” (CHENGDU EASTON PHARMACEUTICAL Co Ltd, priority 2013, dated 2013)

Tested on: guinea pig (豚鼠)
Assay: Allergy (sensitisation) test (过敏性试验)
Assay type: in vivo
Settings: 0.5 ml x 3 every other day; challenge i.v. 1 ml on day 14 and day 21; observed 30 minutes

B1: 阳性对照组: 5% ovalbumin positive control group (protein, UniProt P01012 2-386, looked up)
Ovalbumin: GSIGAASMEFCFDVFKELKVHHANENIFYCPIAIMSALAMVYLGAKDSTRTQINKVVRFDKLPGFGDSIEAQCGTSVNVHSSLRDILNQITKPNDVYSFSLASRLYAEERYPILPEYLQCVKELYRGGLEPINFQTAADQARELINSWVESQTNGIIRNVLQPSSVDSQTAMVLVNAIVFKGLWEKAFKDEDTQAMPFRVTEQESKPVQMMYQIGLFRVASMASEKMKILELPFASGTMSMLVLLPDEVSGLEQLESIINFEKLTEWTSSNVMEERKIKVYLPRMKMEEKYNLTSVLMAMGITDVFSSSANLSGISSAESLKISQAVHAAHAEINEAGREVVGSAEAGVDAASVSEEFRADHPFLFCIKHIATNAVLFFGRCVSP
- allergic reaction symptoms: 竖毛、发抖、干呕、喷嚏、咳嗽、紫癜、呼吸困难、抽搐、休克、死亡
